Target: PRMT1 catalytic core construct
Assay: SEC

stoichiometry N: 4
Substance: PRMT1 catalytic core construct (domain or fragment)
